Measured values: article PMC2928020 (The Journal of Cell Biology, 2010)
Where no end group is shown, it is not given here. The star is where a group is joined. FITC = O=C1OC2(c3ccc(O)cc3Oc3cc(O)ccc32)c2ccc(NC(=S)*)cc21

Biological target: SNX27 PDZ domain, wild type (residues 39-131 of rat SNX27) (rat, UniProt Q8K4V4 39-131)
Experiment: fluorescence polarisation

## {FITC}-TNDSLL [FITC-labeled peptide corresponding to the C-terminal six residues of the β2AR (TNDSLL)]
  Kd: 17 ± 1.2 µM
